Results: patent US20230151110A1 (HUTCHISON MEDIPHARMA, published 2023)
Positions count from the first letter of the chain named. Numbers in names are those of the source. One block for each molecule: values may come before it.

How the values were obtained:
[1] = target: CD47 on the surface of cynomolgus monkey B cells (cynomolgus monkey); experiment: FACS on cynomolgus monkey B cells, antibody 66.7 nM; negative control
[2] = target: T1, human CD47 protein on the cell surface (human, UniProt Q08722 19-323); experiment: FACS on Toledo cells (endogenous human CD47); negative control
T1 construct: whole, on cells; One molecule is used for overexpressed (CHO-K1) and endogenous (Raji, Toledo, REC-1, red blood cells) human CD47; the cell is named under assay; also called CD47 on the surface of Raji, Toledo, REC-1 cells; CD47 on the surface of human red blood cells

[3] = target: T1, human CD47 protein on the cell surface; experiment: FACS on Raji cells (endogenous human CD47); negative control
[4] = target: T1, human CD47 protein on the cell surface; experiment: FACS on REC-1 cells (endogenous human CD47); negative control
[5] = target: T2, CD47 on the surface of cynomolgus monkey B cells (cynomolgus monkey, UniProt A0A5F8AK49 19-323 (rhesus entry)); experiment: FACS on cynomolgus monkey B cells, antibody 66.7 nM
T2 construct: whole, on cells; also called cynomolgus monkey CD47
Source text: The cells were washed three times and analyzed by flow cytometry.

[6] = target: T1, human CD47 protein on the cell surface; experiment: FACS on Raji cells (endogenous human CD47), n = 3
Procedure: (§1) Human CD47 was endogenously expressed on the cell surface of human Burkitt lymphoma cell line Raji. […] The diluted antibodies were mixed with and co-incubated with Raji cells (purchased from ATCC) (5*10⁵ cells/well) at 4° C. for 1 hour. […] The cells were washed three times with PBS containing 2% fetal bovine serum (FBS), and then the fluorescence signal was detected by CantoII (BD Biosciences) flow cytometry, and according to the average fluorescence intensity (MFI) of the signal, GraphPad was used for fitting a concentration dependent curve, and the EC₅₀ was calculated.

[7] = target: T1, human CD47 protein on the cell surface; experiment: FACS on CHO-K1 cells overexpressing human CD47
Procedure: A human CD47 protein (NCBI accession number: NP_001768.1) was overexpressed in hamster ovary cell line CHO-K1 to establish CHO-K1 cell line overexpressing the human CD47 protein. […] After washing twice with iced PBS, the cells were incubated with an iFluor647-labeled goat anti-mouse IgG (H+L) antibody (Genscript) at 4° C. in the dark for 40 minutes. The cells were washed twice with iced PBS, and then the fluorescence signal was detected by Calibur (BD Biosciences) flow cytometry, and according to the average fluorescence intensity (MFI) of the signal, GraphPad was used for fitting a concentration dependent curve, and the EC₅₀ was calculated.

[8] = target: T3, recombinant protein hCD47-Fc containing the extracellular domain of human CD47 fused with the Fc fragment of … (human, UniProt Q08722 19-139); experiment: competition ELISA: hCD47-Fc coated, SIRPα-His 2.5 µg/ml as competitor ligand, anti-His-HRP
T3 construct: extracellular domain; Bought reagent; also called ACROBiosystems Cat: CD7-H5256; not shown: Fc fragment of human IgG

[9] = target: T1, human CD47 protein on the cell surface; experiment: FACS on Raji cells (endogenous human CD47)
Procedure: as §1

[10] = target: T1, human CD47 protein on the cell surface; experiment: FACS on Toledo cells (endogenous human CD47)
Procedure: as §1

[11] = target: T3, recombinant protein hCD47-Fc containing …; experiment: competition ELISA as in Example 1.3: hCD47-Fc coated, SIRPα-His as competitor ligand, anti-His-HRP
Procedure: The recombinant protein hCD47-Fc containing the extracellular domain of human CD47 fused with the Fc fragment of human IgG (ACROBiosystems, Cat: CD7-H5256) was coated onto a 96-well plate and incubated overnight at 4° C. After the plate was washed 3 times with PBST (PBS containing 0.5% Tween-20), PBST containing 1% BSA was added for blocking the plate for 2 hours. […] After the 96-well plate was incubated at 37° C. for 30 minutes, the plate was washed 5 times with PBST, and a TMD (Surmodics, Cat: TMBW-1000-01) developing solution was added, and was incubated in the dark for 15 minutes. 2N H₂SO₄ was added to terminate the color-developing reaction. OD₄₅₀ was read on a microplate reader.

[12] = target: T1, human CD47 protein on the cell surface; experiment: FACS on REC-1 cells (endogenous human CD47)
Procedure: as §1

[13] = target: T4, human CD47-His fusion protein (human, UniProt Q08722 19-139); experiment: SPR (Biacore T200): antibody captured by anti-human Fc on CM5, human CD47-His as analyte, 1:1 Langmuir fit
T4 construct: Bought reagent; also called ACROBiosystems Cat: CD7-H5227; not shown: His tag

[14] = target: T1, human CD47 protein on the cell surface; experiment: FACS on human red blood cells (endogenous CD47)
Procedure: The cells were washed three times with PBS containing 2% fetal bovine serum (FBS), and then the fluorescence signal was detected by Canto II (BD Biosciences) flow cytometry. According to the average fluorescence intensity (MFI) of the signal, GraphPad was used for fitting a concentration dependent curve, and the EC₅₀ was calculated.

Molecule: negative isotype control antibody (isotype), human IgG4P
Max MFI [1]: 53 MFI
Max MFI [2]: 50 MFI
Max MFI [3]: 175 MFI
Max MFI [4]: 265 MFI

B3: Hu-125G4A4m-43 (antibody, V domains shown)
VH: QVQLVQSGAEVKKPGSSVKVSCKASGYTFTSYYMHWVRQAPGQGLEWMGYIDPANDYSDYNQNFKDRVTITADKSTRTTYMELTSLRSEDTAVYYCARLGYGQSSPFDYWGQGTTVTVSS
VL: DIQMTQSPSSLSASVGDRVTITCKASQDIHNYLSWFQQKPGKAPKSLIYRAKRLVEGVPSRFSGSGSGQDYTLTISSLQPEDFATYYCLQYDELYTFGQGTRLEIK
notes: Humanized antibody, IgG4 S228P (IgG4P) subtype
Max MFI [5]: 3260 MFI
Max MFI compared with Ch-125G4m-m35 value, % [5]: 72%

B5: Hu-125G4A4m-46 (antibody, V domains shown)
VH: B3 VH with T79A
VL: B3 VL
notes: as for B3
Max MFI [5]: 2520 MFI
Max MFI compared with Ch-125G4m-m35 value, % [5]: 55%

B7: humanized antibody HMA02h14-48 (antibody, V domains shown)
VH: B3 VH with V68A, I70L
VL: B3 VL with Q69T
notes: Humanized antibody, IgG4 S228P (IgG4P) subtype; also called Hu-125G4A4m-48; Hu-125G4A4-48
EC50 [9]: 1.2 nM
EC50 [10]: 2.2 nM
IC50 [11]: 1.58 nM
EC50 [12]: 0.6 nM
Max MFI [5]: 4200 MFI
Max MFI compared with Ch-125G4m-m35 value, % [5]: 92%
Kd [13]: 0.777 nM
EC50 [14]: 3.9 nM

B8: Hu-125G4A4m-49 (antibody, V domains shown)
VH: B3 VH with V68A, I70L
VL: B3 VL
notes: as for B3
Max MFI [5]: 4080 MFI
Max MFI compared with Ch-125G4m-m35 value, % [5]: 90%

B9: Hu-125G4A4m-44 (antibody, V domains shown)
VH: B3 VH
VL: B3 VL with Q3K, S46T, S60L, Y87F
notes: as for B3
Max MFI [5]: 4510 MFI
Max MFI compared with Ch-125G4m-m35 value, % [5]: 99%

B11: control antibody Hu5F9 (antibody, V domains shown)
VH: QVQLVQSGAEVKKPGASVKVSCKASGYTFTNYNMHWVRQAPGQRLEWMGTIYPGNDDTSYNQKFKDRVTITADTSASTAYMELSSLRSEDTAVYYCARGGYRAMDYWGQGTLVTVSS
VL: DIVMTQSPLSLPVTPGEPASISCRSSQSIVYSNGNTYLGWYLQKPGQSPQLLIYKVSNRFSGVPDRFSGSGSGTDFTLKISRVEAEDVGVYYCFQGSHVPYTFGQGTKLEIK
Max MFI [5]: 4120 MFI
Max MFI compared with Ch-125G4m-m35 value, % [5]: 90%

Next, values leading:

Max MFI [5]: 4550 MFI
Max MFI compared with Ch-125G4m-m35 value, % [5]: 100%
B1: chimeric antibody Ch-125G4-m35 (antibody, V domains shown)
VH: QVQLQQSGTELAKPGASVKMSCKASGYTFTSYYMHWVKQRPGQILEWIGYIDPANDYSDYNQNFKDKATLTADKSSRTTYMQLTSLTSEDSAVYYCARLGYGQSSPFDYWGQGTTLIVSS
VL: DIKMTQSPSSMYASVGERVTITCKASQDIHNYLSWFQQKPGKSPKTLIYRAKRLVEGVPLRFSGSGSGQDYSLTISSLEYEDMGIYFCLQYDELYTFGGGTRLEIK
notes: Chimeric antibody with human IgG4 (S228P) heavy chain constant region and human kappa light chain constant region; PTM sites mutated (NSS to QSS in the heavy chain, DG to EG in the light chain); also called Ch-125G4m-m35; 125G4A4m

EC50 [6]: 0.84 nM
EC50 [7]: 0.22 nM
IC50 [8]: 3.06 nM
B2: hybridoma-derived antibody 125G4A4 (antibody, V domains shown)
VH: B1 VH with Q103N
VL: B1 VL with E56D
notes: Mouse antibody purified from hybridoma supernatant on Protein A

Max MFI [5]: 2630 MFI
Max MFI compared with Ch-125G4m-m35 value, % [5]: 58%
B4: Hu-125G4A4m-45 (antibody, V domains shown)
VH: B3 VH with T79A
VL: B3 VL with Q69T
notes: as for B3

Max MFI [5]: 4840 MFI
Max MFI compared with Ch-125G4m-m35 value, % [5]: 106%
B6: Hu-125G4A4m-50 (antibody, V domains shown)
VH: B3 VH with V68A, I70L
VL: B3 VL with Q3K, S46T, S60L, Y87F
notes: as for B3

Max MFI [5]: 4100 MFI
Max MFI compared with Ch-125G4m-m35 value, % [5]: 90%
B10: Hu-125G4A4m-47 (antibody, V domains shown)
VH: B3 VH with T79A
VL: B3 VL with Q3K, S46T, S60L, Y87F
notes: as for B3
